From patent US20220218001A1, “REDOX ENZYMES IN ANIMAL FEED COMPOSITIONS” (Novozymes A/S, priority 2019, published 2022)

What was measured:
[1] = commercial SODs from Sigma set as specific activity reference; cited from earlier work
[2] = Gastric stability assay of SODs; type: in vitro ADME; details: 37° C., reference activity at pH7.0 without stress
Experimental: Gastric stability was assayed with artificial gastric juice as stress condition. 20 μl SOD with appropriate dilution was added into 180 μl stress buffer (100 mM NaCl, 0.0013M HCl at pH3.0). The stress buffer with pepsin was prepared by adding 1.11 mg/ml pepsin (from porcine gastric mucosa, P7000, Sigma, 474 U/mg). The mixture was incubated at 37° C. in thermomixer for 0, 15, 30, 45, 60, 90, and 120 minutes separately. 10 μl sample extracted from the mixture was added into 90 μl activity buffer (K2HPO4/KH2PO4 mixed with final concentration of 100 mM PBS at pH7.0) as stop mixture. Then 20 μl stop mixture was added into 200 μl WST solution (or CytoC solution at pH7.8), and finally 20 μl coupled enzyme solution from kit was added to measure absorbance. The absorbance was measured at 450 nm for Sigma SOD kit (or 550 nm at pH 7.8) for 20 minutes at 37° C. (interval 40 sec, shake before first read). The activity at pH7.0 without stress condition was set as reference, and the residual activity at stress condition (pH3.0, pH3.0+pepsin) compared with reference was calculated as relative stability.

Glutathione peroxidase = test: Plasma GPx activity (GPx determination KIT); type: in vivo; details: piglets, day 42
Experimental: The concentration of total proteins was determined in liver lysate and plasma, using the Pierce™ BCA Protein Assay Kit (Thermo Fisher Scientific, Illkirch-Graffenstaden, France). The samples were processed following the supplier's recommendations. Plasma samples were diluted 100 times. 25 μL of standards or samples were added to 200 μL of working reagent and incubated 30 minutes at 37° C. The colorimetric intensity was measured at 562 nm. Results are expressed in μg of total protein per mL of sample.
The activity of the Glutathione peroxidase was determined using the GPx determination KIT (abcamab102530). Briefly, 40 μL of the colorimetric reaction mix was added to 100 μL of standards and 10 μL of cumene hydroperoxide was added to the standards and to the 50 μL of samples (Plasma samples were adjusted to bring 600 μg of total protein in the reaction). The absorbance at 340 nm was measured (A1), and after 5 min at 25° C., a second measurement was done (A2).
The GPx activity was calculated as follow:
B=NADPH amount that was decreased between T1 and T2 (in nmol).
T1=Time of the first reading (A1) (minutes).
T2=Time of second reading (A2) (minutes).
V=Pretreated sample volume added into the reaction well (mL).
D=Sample dilution factor.
(§1) ANOVA was performed for plasmatic parameters and student test was calculated to evaluate the significance of the differences observed in gene expression.

[3] = system: reactive oxygen metabolites (ROM) and Plasma antioxidant capability (PAT); test: Oxidative stress index FRAS5 (d-ROM, PAT) in plasma; type: in vivo, piglets; details: piglet plasma
Experimental: An oxidative stress index was calculated as the ratio of reactive oxygen metabolites (ROM) and Plasma antioxidant capability (PAT) determined in plasma and liver lysate samples. ROM and
PAT were analyzed using commercially methods (d-ROM fast test and PAT test) on FRAS5 instrument (Innovatics Laboratory, Philadelphia, USA). For d-ROM test, 10 μL of sample was mixed with an acidic buffer. Then, a chromogen was added, and measured photometrically at 505 nm. The results are expressed in UCarr (1 UCarr=0.08 mg of H2O2/dl). For PAT test, 10 μl of sample was added in a colored solution (mix of source ferric ions and chromogen). The intensity of chromatic change was measured at 505 nm. The results are expressed in UCor (1 UCor=1.4 μM of Vitamin C equivalent). The oxidative stress index was calculated as the ratio of d-ROMs test value to PAT test value.
as §1

[4] = Nutritional model in piglets: growth performance (FCR); type: in vivo; details: d 0-42, piglets, vs NC (22% CP)
Experimental: Experimental Unit: Slatted Floor Pens, 4 piglets per pen (2 barrows & 2 gilts per pen)
Feed Type: Starter (Day 0-21) and Grower (Day 21-42). MASH feed is employed, using a corn-soybean type commercial ration formulation with an increase of 5-6% crude protein compared to normal commercial rations. Test material is added to the feed beginning on Day 0 and continuing through Day 42.
Replication/piglets per treatment: Treatments 1-8 fed to 12 replicates each of 4 piglets (2 barrows+2 gilts) per replicate.
Piglet Source: Piglets (post-weaned, at 21 days of age, called Day 0) are collected in early am (day of placement or Day 0), weighed (2 barrows & 2 gilts per pen), and assigned to each experimental pen. Each piglet is weighed individually and assigned to a pen, with very high and very low body weights excluded from the study. After all piglets are assigned to a pen, the body weights are checked to ensure no treatment is more than 1 standard deviation from another treatment.

[5] = system: genes related to oxidative stress; test: Oxidative stress PCR array in duodenum and ileum of weaned piglets; type: in vivo; details: duodenum, day 42, vs control group, p=0.019
Experimental: The objective of this study was to evaluate anti-oxidant enzymes supplementation (SOD and CAT) alone and in combination in early weaned piglets, and if these enzymes can potentially alleviate the oxidative stress impact on weaned piglets and consequently improve the growth performance. In the in vivo trial (example 3), plasma samples were collected at day 0 (baseline, weaning moment), day 14 and day 42 of the study for additional analysis. […]
Total RNA was extracted from tissues (stored at −20° C. in RNA later) by lysing tissue with FastPrep® 24 (MP Biomedicals, Illkirch, France), using the phenol-chloroform method (TRIzol reagent; Invitrogen, Invitrogen, Cergy Pontoise, France) followed by purification using RNeasy columns by automated method with the Qiacube HT (Qiagen, Courtaboeuf, France). The concentration of RNA was measured by NanoDrop ND-1000 Spectrophotometer (Thermo Fisher Scientific, Illkirch, France) and the purity was estimated by A260/A280 ratio. RNA integrity was assessed by using the Agilent 2100 Bioanalyzer (Agilent Technologies, Basel, Switzerland). The threshold of the RNA Integrity Number (RIN) was set at 7.5 to validate sufficient quality of the RNAs. […]
as §1

Molecule	SOD specific activity (reference) [1]	Gastric stability: pH 3, +pepsin 15 min - residual activity value % ([2]; 15 min)	Gastric stability: pH 3, +pepsin 30 min - residual activity value % ([2]; 30 min)	plasma GPx activity (Glutathione peroxidase)	reactive oxygen metabolites (d-ROM) ([3]; both time point (day 14 and 42))	plasmatic antioxidant capacity (PAT) ([3]; day 14, p<0.0001 between groups)	FCR [4]	GPX1 gene fold change [5]
r E. coli: commercial Sigma SOD; probably recombinant SOD bovine expressed in Escherichia coli (S9697)	6108 U/mg EP	43%	43%					
CAT: catalase feed enzyme: SEQ ID NO 7 in Examples 1-2; in Example 4 probably treatment 6 (Product C, SEQ ID NO 250) (protein, Aspergillus niger; mat_peptide (1)..(740)) MRHFWLLPAVAGIAGAQCPYLSGEMSFTQEQDNAGDTIEVTEQTIDNTLYVNDTGSYMTTDFGTPISDQYSLKAGRRGPTLLEDFIFRQKLQRFDHERVPERVVHARGAGAYGTFKSYADWSNVTAADFLSANEKETPMFCRFSTVVGFRGSVDTARDVHGHACRFYTDEGNYDIVGINFAPFFIQDAIQFPDLVHAIKPMPNNEIPQAATAHTSAWDFFSQQSTALHSALWLMSGNGIPRSFRHMNGYGVHSFRFVAANGTSKVVRYRWKSQQGVASLVWEEAQAAAGKNSDYHRQDLYNAIANGHYPKYELQAQIMDEADMLRFGFDLLDPTKLVPEEVVPYTPLGMMELNANPTNYFAEVEQAGFQPGHVVPGIDFTDDPLLQGRLFSYLDTQLTRHGGPNFEQIPVNRPRKPVHNNNRDGFGQQQIPTNNWAYTPNTMSNGYPMQANQTHGHGFFTSPYRYASGHLIREPSPTFHDHWSQPAMFWNSLIPAEQQMVVNAIVFENSKVNSPHVRKNVVNQLNMVNNNLAVRVARGLGLDEPSPNPTYYTSNKTSNVGTFGKPLLSIEGLQVGFLASNSHPESIKQGQAMAAQFSAAGVDLNIVTEAYADGVNTTYALSDAIDFDALIIADGVQSLFASPSLANQMNSTATSTLYPPARPYQILVDSFRYGKPVAAVGSGSAALKNAGIDTSRSGVYTGSSETTENIAKEVLKGLYTFRFVDRFALDE				significant increase	increase	increase	significantly better than NC	1.34
